In patent US20150064184A1:

Columns and labels:
[1] = biological target: human insulin receptor extracellular domain (HIR ECD) (human) (UniProt P06213); assay: ELISA, HIR ECD plated (second experiment)
[2] = biological target: human insulin receptor extracellular domain (HIR ECD) (human) (UniProt P06213); assay: ELISA, HIR ECD plated; compared with the HIR Ab

GUSB-HIR Ab fusion protein (human GUSB fused to the amino terminus of the HIR Ab heavy chain) (from UniProt P08236 23-633) (antibody)
EC50 [1]: 4.8 nM | reduction in receptor binding affinity against the HIR Ab [2]: 95%
